pKd: −log10 of the molar value. Values belong to the sequence of their own block, whether it stands above or below them.
How the values were obtained:
HLA-B*40:01 = assay: IEDB peptide-MHC binding, purified MHC/competitive/radioactivity; filed as Kd, often an IC50 or EC50 that approximates it; ≥ and ≤ were set here for values at or beyond the usual limits of such assays
HLA-B*44:02 = assay: as above
HLA-B*45:01 = assay: as above
HLA-B*40:02 = assay: as above
HLA-B*44:03 = assay: as above
HLA-B*18:01 = assay: as above
HLA-A*68:02 = assay: as above
HLA-A*02:01 [1] = assay: as above
HLA-A*68:01 = assay: as above; details: source organism: Vaccinia virus WR
HLA-A*33:01 = assay: as above; details: source organism: Vaccinia virus WR
HLA-B*54:01 = assay: as above; details: source organism: Vaccinia virus WR
HLA-A*11:01 = assay: as above; details: source organism: Vaccinia virus WR
HLA-B*51:01 [2] = assay: as above; details: source organism: Vaccinia virus WR
HLA-A*02:06 = assay: as above
HLA-A*02:02 = assay: as above
HLA-B*07:02 = assay: as above; details: source organism: Vaccinia virus WR
HLA-B*53:01 = assay: as above; details: source organism: Vaccinia virus WR
HLA-A*31:01 = assay: as above; details: source organism: Vaccinia virus WR
HLA-A*03:01 = assay: as above; details: source organism: Vaccinia virus WR
HLA-B*35:01 = assay: as above; details: source organism: Vaccinia virus WR
HLA-A*02:03 = assay: as above
HLA-A*26:01 [3] = assay: as above; details: source organism: Dengue virus 3 Martinique/1243/1999
HLA-A*02:01 [4] = assay: IEDB peptide-MHC binding, purified MHC/competitive/fluorescence; filed as Kd, often an IC50 or EC50 that approximates it; ≥ and ≤ were set here for values at or beyond the usual limits of such assays; details: source organism: Homo sapiens
HLA-B*15:01 = assay: as above; details: source organism: Homo sapiens
HLA-A*26:01 [5] = assay: as above; details: source organism: Homo sapiens
HLA-B*46:01 = assay: as above; details: source organism: Homo sapiens
HLA-B*51:01 [6] = assay: as above; details: source organism: Homo sapiens
HLA-B*27:03 = assay: as above; details: source organism: Homo sapiens
HLA-B*39:01 = assay: as above; details: source organism: Homo sapiens
HLA-B*57:01 = assay: as above; details: source organism: Homo sapiens
HLA-A*69:01 = assay: as above; details: source organism: Homo sapiens
HLA-A*01:01 = assay: IEDB peptide-MHC binding, purified MHC/direct/fluorescence; filed as Kd, often an IC50 or EC50 that approximates it; ≥ and ≤ were set here for values at or beyond the usual limits of such assays; details: source organism: Canis lupus familiaris
[7] = source organism: Mammarenavirus tacaribeense
[8] = source organism: Dengue virus 3 Martinique/1243/1999
[9] = source organism: Vaccinia virus WR
[10] = source organism: Trypanosoma cruzi
[11] = source organism: Mammarenavirus brazilense
[12] = source organism: SARS coronavirus Tor2
[13] = source organism: Mammarenavirus guanaritoense
[14] = source organism: Mammarenavirus lassaense
[15] = source organism: Dengue virus 1 Brazil/97-11/1997
[16] = source organism: Mammarenavirus juninense
[17] = source organism: Lymphocytic choriomeningitis virus (strain Armstrong)
[18] = source organism: Lassa virus Josiah

Sequence: AEFKSRFFVM
pKd (HLA-B*40:01; [7]): 7.38
pKd (HLA-B*44:02; [7]): 6.72
pKd (HLA-B*45:01; [7]): 6.54
pKd (HLA-B*40:02; [7]): 8.45
pKd (HLA-B*44:03; [7]): 7.06
pKd (HLA-B*18:01; [7]): 7.43

Sequence: CSAVPVHWV
pKd (HLA-A*68:02; [8]): 7.95

Sequence: CTFMIITSTK
pKd (HLA-A*02:01 [1]; [9]): 5.73
pKd (HLA-A*68:01): 7.08
pKd (HLA-A*33:01): 5.91
pKd (HLA-B*54:01): 5.49
pKd (HLA-A*11:01): 5.95
pKd (HLA-B*51:01 [2]): 4.99
pKd (HLA-A*68:02; [9]): ≤ 4.42
pKd (HLA-A*02:06; [9]): 4.87
pKd (HLA-A*02:02; [9]): 5.09
pKd (HLA-B*07:02): 5.52
pKd (HLA-B*53:01): 5.72
pKd (HLA-A*31:01): 6.77
pKd (HLA-A*03:01): 6.34
pKd (HLA-B*35:01): ≤ 4.19
pKd (HLA-A*02:03; [9]): 5.17

Sequence: DVSRPTTVV
pKd (HLA-A*02:01 [1]; [10]): ≤ 4.44
pKd (HLA-A*68:02; [10]): 7.42
pKd (HLA-A*02:06; [10]): 4.89
pKd (HLA-A*02:02; [10]): 4.79
pKd (HLA-A*02:03; [10]): ≤ 4.42

Sequence: EELSTLYEAL
pKd (HLA-B*40:01; [11]): 5.90
pKd (HLA-B*44:02; [11]): 5.72
pKd (HLA-B*45:01; [11]): 5.68
pKd (HLA-B*40:02; [11]): 6.92
pKd (HLA-B*44:03; [11]): 6.23
pKd (HLA-B*18:01; [11]): 6.43

Sequence: EEVPNIIHEA
pKd (HLA-B*40:01; [11]): ≤ 4.69
pKd (HLA-B*44:02; [11]): ≤ 4.57
pKd (HLA-B*45:01; [11]): 6.57
pKd (HLA-B*40:02; [11]): 6.10
pKd (HLA-B*44:03; [11]): 4.80
pKd (HLA-B*18:01; [11]): 4.91

Sequence: ETYQLWTAL
pKd (HLA-A*26:01 [3]): 6.74
pKd (HLA-A*68:02; [8]): 8.47

Sequence: GEILLLEWLA
pKd (HLA-B*40:01; [12]): 7.69
pKd (HLA-B*44:02; [12]): 6.21
pKd (HLA-B*45:01; [12]): 7.76
pKd (HLA-B*40:02; [12]): 4.79
pKd (HLA-B*44:03; [12]): 6.96
pKd (HLA-B*18:01; [12]): 5.33

Sequence: GEQVDLGPVL
pKd (HLA-B*40:01; [13]): 5.04
pKd (HLA-B*44:02; [13]): ≤ 4.49
pKd (HLA-B*45:01; [13]): 5.72
pKd (HLA-B*40:02; [13]): 7.28
pKd (HLA-B*44:03; [13]): ≤ 4.36
pKd (HLA-B*18:01; [13]): 4.92

pKd (HLA-A*02:01 [4]): ≤ 4.70
pKd (HLA-B*15:01): ≤ 4.70
pKd (HLA-A*26:01 [5]): ≤ 4.70
pKd (HLA-B*46:01): ≤ 4.70
pKd (HLA-B*51:01 [6]): ≤ 4.70
pKd (HLA-B*27:03): ≤ 4.70
pKd (HLA-B*39:01): ≤ 4.70
pKd (HLA-B*57:01): ≤ 4.70
pKd (HLA-A*69:01): ≤ 4.70
pKd (HLA-A*01:01): 9.10
Sequence: GTEYRLTLY

Sequence: HDFGIPTPS
pKd (HLA-B*40:01; [14]): 4.86
pKd (HLA-B*44:02; [14]): ≤ 4.17
pKd (HLA-B*45:01; [14]): 5.84
pKd (HLA-B*40:02; [14]): 7.12
pKd (HLA-B*44:03; [14]): ≤ 4.11
pKd (HLA-B*18:01; [14]): 4.74

Sequence: LTMKEKSWLV
pKd (HLA-A*68:02; [15]): 6.60
pKd (HLA-A*02:06; [15]): 7.13

Sequence: MEKLKALVA
pKd (HLA-B*40:01; [12]): 6.82
pKd (HLA-B*44:02; [12]): 6.25
pKd (HLA-B*45:01; [12]): 7.62
pKd (HLA-B*40:02; [12]): 6.75
pKd (HLA-B*44:03; [12]): 6.56
pKd (HLA-B*18:01; [12]): 5.26

Sequence: MTTIGIVLL
pKd (HLA-A*68:02; source organism: Dengue virus 2 Peru/IQT2913/1996): 7.30

Sequence: NEYTGNYQCG
pKd (HLA-B*40:01; [12]): ≤ 4.16
pKd (HLA-B*44:02; [12]): ≤ 4.15
pKd (HLA-B*45:01; [12]): 5.75
pKd (HLA-B*40:02; [12]): ≤ 4.55
pKd (HLA-B*44:03; [12]): 5.12
pKd (HLA-B*18:01; [12]): ≤ 4.48

Sequence: PDYKRPGVS
pKd (HLA-B*40:01; [14]): ≤ 4.47
pKd (HLA-B*44:02; [14]): ≤ 4.11
pKd (HLA-B*45:01; [14]): ≤ 4.11
pKd (HLA-B*40:02; [14]): 4.75
pKd (HLA-B*44:03; [14]): ≤ 4.27
pKd (HLA-B*18:01; [14]): ≤ 4.11

Sequence: PELELNVDAM
pKd (HLA-B*40:01; [16]): ≤ 4.16
pKd (HLA-B*44:02; [16]): ≤ 4.15
pKd (HLA-B*45:01; [16]): ≤ 4.15
pKd (HLA-B*40:02; [16]): 6.10
pKd (HLA-B*44:03; [16]): ≤ 4.15
pKd (HLA-B*18:01; [16]): 6.44

Sequence: RELLGYCVSL
pKd (HLA-B*40:01; [11]): 5.01
pKd (HLA-B*44:02; [11]): 5.72
pKd (HLA-B*45:01; [11]): 5.31
pKd (HLA-B*40:02; [11]): 8.29
pKd (HLA-B*44:03; [11]): 5.30
pKd (HLA-B*18:01; [11]): 4.89

Sequence: RELYLNSSNV
pKd (HLA-B*40:01; [12]): 6.74
pKd (HLA-B*44:02; [12]): 5.67
pKd (HLA-B*45:01; [12]): 7.02
pKd (HLA-B*40:02; [12]): 7.72
pKd (HLA-B*44:03; [12]): 5.97
pKd (HLA-B*18:01; [12]): ≤ 4.15

Sequence: RLLPSLLLLL
pKd (HLA-A*68:02; [10]): 5.14
pKd (HLA-A*02:06; [10]): 9.23
pKd (HLA-A*02:02; [10]): 9.55
pKd (HLA-A*02:03; [10]): 9.04

Sequence: SEAQMSIQLI
pKd (HLA-B*40:01; [14]): 5.74
pKd (HLA-B*44:02; [14]): 7.52
pKd (HLA-B*45:01; [14]): 6.00
pKd (HLA-B*40:02; [14]): 6.03
pKd (HLA-B*44:03; [14]): 6.63
pKd (HLA-B*18:01; [14]): 4.86

Sequence: SENDWFSCM
pKd (HLA-B*40:01; [17]): 5.85
pKd (HLA-B*44:02; [17]): 7.68
pKd (HLA-B*45:01; [17]): 6.93
pKd (HLA-B*40:02; [17]): 6.79
pKd (HLA-B*44:03; [17]): 7.65
pKd (HLA-B*18:01; [17]): 6.73

pKd (HLA-A*02:01 [1]; source organism: Homo sapiens): 7.40
pKd (HLA-A*68:02; source organism: Homo sapiens): ≤ 4.28
pKd (HLA-A*02:02; source organism: Homo sapiens): 7.15
pKd (HLA-A*02:03; source organism: Homo sapiens): 5.62
Sequence: SMEAEMIQL

Sequence: STCYVFGLY
pKd (HLA-A*02:01 [1]; [9]): 5.38
pKd (HLA-B*54:01): 4.97
pKd (HLA-A*11:01): 8.10
pKd (HLA-B*51:01 [2]): ≤ 4.13
pKd (HLA-A*68:02; [9]): 5.86
pKd (HLA-A*02:06; [9]): 5.21
pKd (HLA-A*02:02; [9]): 4.87
pKd (HLA-B*07:02): ≤ 4.11
pKd (HLA-B*53:01): 5.00
pKd (HLA-B*35:01): ≤ 4.42
pKd (HLA-A*02:03; [9]): ≤ 5.00

Sequence: TEVMPVSMA
pKd (HLA-B*40:01; [12]): 4.81
pKd (HLA-B*44:02; [12]): 5.16
pKd (HLA-B*45:01; [12]): 6.74
pKd (HLA-B*40:02; [12]): 7.10
pKd (HLA-B*44:03; [12]): 5.41
pKd (HLA-B*18:01; [12]): 4.95

Sequence: TSIGLICVIA
pKd (HLA-A*68:02; [8]): 7.45

Sequence: WVSGVSGNI
pKd (HLA-A*68:02; source organism: Dengue virus 4 Philippines/H241/1956): 8.00

Sequence: YLISIFLHLV
pKd (HLA-A*68:02; [18]): 6.78
pKd (HLA-A*02:06; [18]): 8.07
pKd (HLA-A*02:02; [18]): 8.56
pKd (HLA-A*02:03; [18]): 8.76
